In patent publication US20240034783A1 (SOTIO BIOTECH A S, published 2024):

Assays:
human CLDN18.2 [1] = target: T1, human CLDN18.2 (human); test: ELISA on CLDN18.2-lipoparticles
T1 construct: also called huCLDN18.2; hCLDN18.2
Method: (§1) CLDN18.2-lipoparticles and Null-lipoparticles (without antigens) were used to coat 96-well plates at a final concentration of 10 U/ml in 100 mM sodium carbonate, pH 9.6. Upon washing with PBS/0.05% Tween-20 (PBS-T) and blocking with PBS-T/3% BSA for at least 1 h at 37° C., 1:3 serial dilutions of hCl antibodies with a starting concentration of 2 μg/ml were added and incubated for at least 1 h at 37° C.

human CLDN18.2 [2] = target: T1, human CLDN18.2; test: flow cytometry; % positive tumor cells divided by % positive healthy stomach cells
Method: Two Balb/c mice were implanted subcutaneously with 1×10⁶ A549 cells expressing CLDN18.2 in 100 μl of 50% Matrigel and tumors growth was monitored over a few weeks until the tumor reached the desired size between 150-450 mm 3. Healthy stomach tissue and tumor tissue was collected for FC analysis. The collected tissues were cut into small pieces and digested with the Miltenyi tumor dissociation kit (MACS Miltenyi Biotec, Germany). Tissue pieces were incubated with dissociation buffer (prepared according to the manufacturer instruction) in 6 well plates for 30 min in 37° C. under permanent gentle rocking motion. Samples were resuspended and strained through a 70 μm cell strainer (Corning, USA) followed by a wash with 20 ml FC buffer (PBS+2% FBS). Cell suspensions were centrifuged (5 min at 400 g for 4° C.) and the supernatants were discarded. If needed, cell suspensions were passed through a strainer and centrifuged repeatedly and pellets resuspended in 5 ml of red blood cell lysis buffer (Biolegend, USA), incubated on ice for 4 min. After incubation, 25 ml of PBS was added, and the suspensions were centrifuged again (5 min at 400 g for 4° C.). Pellets were resuspended in FC buffer (0.5-3 ml based on pellets). Equal number of cells were transferred into 96 well plates and further processed for FC analysis. The cells in the plates were washed with PBS and centrifuged (400 g for 2 min at 4° C.). […] After incubation, cells were washed twice in PBS and centrifuged (400 g for 2 min at 4° C.). Pellets were resuspended in 50 μl/well of secondary staining mix (PBS+PE-labelled anti-human antibody) (Thermo Fisher Scientific, USA), and incubated 25 min on ice. After incubation cells were washed again twice in PBS. Pellets were resuspended in 100 μl of PBS containing DAPI. Plates were kept on ice until FC analysis. For FC analysis, live cells were separated from dead cells by forward scatter and DAPI stain. Live cells were then gated for the presence of cytokeratin ([…]) and bound CLDN18.2 antibodies (PE positive cells).

human CLDN18.2 [3] = target: T1, human CLDN18.2; test: flow cytometry titration, PA-TU-8988S-High cells
Method: (§2) In order to have a more homogenous cell population, the cells were sorted by FACS to select only cells with a the higher CLDN18.2 expression. […] After wash in FACS buffer, the cells were incubated with the PE-labeled Fey specific IgG goat anti-human secondary antibody (eBioscience) on ice for 30 min. After wash, the stained cells were resuspended in FACS buffer, analyzed and sorted by a FACSAria™ instrument, separating medium expressing cells from high expressing cells (FIG. 2B). […] HEK293T cells overexpressing CLDN18.2 or CLDN18.1 were generated as described in Example 3 and the expression of CLDN18.2 was analyzed by flow cytometry (FIG. 3).
(§3) A PE-coupled secondary anti-human IgG antibody was added to the cells for additional 30 min at 4° C. after washes with the FC buffer, followed by further washes with FC buffer. The cells were then resuspended in 100 μl FC buffer and measured with a FACSCalibur™ cell analyzer (BD Biosciences, USA).

human CLDN18.2 [4] = target: T1, human CLDN18.2; test: flow cytometry titration, HEK293T cells overexpressing CLDN18.2
Method: as §2, §3

human CLDN18.2 [5] = target: T1, human CLDN18.2; test: ELISA on CLDN18.2-lipoparticles, after Asn-deamidation stress test
Method: The stressed and non-stressed sample was stored at −80° C. Asn-deamidation and Asp-isomerization of the samples was analyzed by strong cation exchange (SCX) chromatography. Deamidation of Asn leads in a SCX chromatogram to an increase of the peak area before the main peak (bM), while Asp-isomerization leads in a SCX chromatograph to an increase of the peak area after the main peak (aM) (Du et al. 2012). SCX chromatography was performed on a MAbPac SCX-10 Column (ThermoFisher Scientific, Basel, CH), with buffer A at pH 4.0 and buffer B at pH 11.0. The flow rate was of 0.5 ml/min with a pH gradient of 30-80% buffer B. 10 μg of the sample in 20 μl of buffer A was injected into the column. Sample detection was performed by protein absorbance at 280 nm. […] NS motifs are the second most liable motifs for deamidation.
as §1

| Binder | EC50 (human CLDN18.2 [1]) [µg/mL] | Ratio tumor/stomach (Average) (human CLDN18.2 [2]) | Ratio tumor/stomach (Mouse 1) (human CLDN18.2 [2]) | Ratio tumor/stomach (Mouse 2) (human CLDN18.2 [2]) | EC50 (human CLDN18.2 [3]) [µg/mL] | Max MFI (human CLDN18.2 [3]) [MFI] | EC50 (human CLDN18.2 [4]) [µg/mL] | Max MFI (human CLDN18.2 [4]) [MFI] | EC50 (human CLDN18.2 [5]) [µg/mL] | fold change of EC50 against non-stressed IMAB362 (human CLDN18.2 [5]) [fold] |
| --- | --- | --- | --- | --- | --- | --- | --- | --- | --- | --- |
| IMAB362 (antibody, human IgG1, kappa, V domains shown, Control, chimeric IgG1, synthesized from the published chains; also called Claudiximab; Zolbetuximab) VH: QVQLQQPGAELVRPGASVKLSCKASGYTFTSYWINWVKQRPGQGLEWIGNIYPSDSYTNYNQKFKDKATLTVDKSSSTAYMQLSSPTSEDSAVYYCTRSWRGNSFDYWGQGTTLTVSS VL: DIVMTQSPSSLTVTAGEKVTMSCKSSQSLLNSGNQKNYLTWYQQKPGQPPKLLIYWASTRESGVPDRFTGSGSGTDFTLTISSVQAEDLAVYYCQNDYSYPFTFGSGTKLEIKR | 0.0515 | 0.88 | 2.53 | 0.29 | 0.508 | 1050 | 0.388 | 1970 | – | – |
| IMAB362 after the Asn-deamidation stress test (antibody, human IgG1, kappa, V domains shown, partly deamidated Asn after 1 week at pH 8.0 and 40 °C; sites not determined (NS motif at LC CDR1 aa 31-32 named as liable); partly deamidated Asn after 1 week at pH 8.0 and 40 °C; sites not determined (NS motif at HC CDR3 aa 103-104 named as liable), also called stressed IMAB362; deamidated IMAB362) VH: QVQLQQPGAELVRPGASVKLSCKASGYTFTSYWINWVKQRPGQGLEWIGNIYPSDSYTNYNQKFKDKATLTVDKSSSTAYMQLSSPTSEDSAVYYCTRSWRGNSFDYWGQGTTLTVSS VL: DIVMTQSPSSLTVTAGEKVTMSCKSSQSLLNSGNQKNYLTWYQQKPGQPPKLLIYWASTRESGVPDRFTGSGSGTDFTLTISSVQAEDLAVYYCQNDYSYPFTFGSGTKLEIKR | – | – | – | – | – | – | – | – | 0.0951 | 1.8 |
